Assay results reported in US20260070987A1.

B1: equine IgG1 D312W (antibody, part only; not given: variable domains, not shown: another chain or arm of the molecule)
constant: ASTTAPKVFALAPGCGTTSDSTVALGCLVSGYFPEPVKVSWNSGSLTSGVHTFPSVLQSSGFYSLSSMVTVPASTWTSETYICNVVHAASNFKVDKRIEPIPDNHQKVCDMSKCPKCPAPELLGGPSVFIFPPNPKDTLMITRTPEVTCVVVDVSQENPDVKFNWYMDGVEVRTATTRPKEEQFNSTYRVVSVLRIQHQWWLSGKEFKCKVNNQALPQPIERTITKTKGRSQEPQVYVLAPHPDELSKSKVSVTCLVKDFYPPEINIEWQSNGQPELETKYSTTQAQQDSDGSYFLYSKLSVDRNRWQQGTTFTCGVMHEALHNHYTQKNVSKNPGK
B2: equine IgG1 G426C (antibody, part only; not given: variable domains, not shown: another chain or arm of the molecule)
constant: ASTTAPKVFALAPGCGTTSDSTVALGCLVSGYFPEPVKVSWNSGSLTSGVHTFPSVLQSSGFYSLSSMVTVPASTWTSETYICNVVHAASNFKVDKRIEPIPDNHQKVCDMSKCPKCPAPELLGGPSVFIFPPNPKDTLMITRTPEVTCVVVDVSQENPDVKFNWYMDGVEVRTATTRPKEEQFNSTYRVVSVLRIQHQDWLSGKEFKCKVNNQALPQPIERTITKTKGRSQEPQVYVLAPHPDELSKSKVSVTCLVKDFYPPEINIEWQSNGQPELETKYSTTQAQQDSDGSYFLYSKLSVDRNRWQQGTTFTCCVMHEALHNHYTQKNVSKNPGK
B3: equine IgG1 M252W (antibody, part only; not given: variable domains, not shown: another chain or arm of the molecule)
constant: ASTTAPKVFALAPGCGTTSDSTVALGCLVSGYFPEPVKVSWNSGSLTSGVHTFPSVLQSSGFYSLSSMVTVPASTWTSETYICNVVHAASNFKVDKRIEPIPDNHQKVCDMSKCPKCPAPELLGGPSVFIFPPNPKDTLWITRTPEVTCVVVDVSQENPDVKFNWYMDGVEVRTATTRPKEEQFNSTYRVVSVLRIQHQDWLSGKEFKCKVNNQALPQPIERTITKTKGRSQEPQVYVLAPHPDELSKSKVSVTCLVKDFYPPEINIEWQSNGQPELETKYSTTQAQQDSDGSYFLYSKLSVDRNRWQQGTTFTCGVMHEALHNHYTQKNVSKNPGK
B4: equine IgG1 M252Y (antibody, part only; not given: variable domains, not shown: another chain or arm of the molecule)
constant: ASTTAPKVFALAPGCGTTSDSTVALGCLVSGYFPEPVKVSWNSGSLTSGVHTFPSVLQSSGFYSLSSMVTVPASTWTSETYICNVVHAASNFKVDKRIEPIPDNHQKVCDMSKCPKCPAPELLGGPSVFIFPPNPKDTLYITRTPEVTCVVVDVSQENPDVKFNWYMDGVEVRTATTRPKEEQFNSTYRVVSVLRIQHQDWLSGKEFKCKVNNQALPQPIERTITKTKGRSQEPQVYVLAPHPDELSKSKVSVTCLVKDFYPPEINIEWQSNGQPELETKYSTTQAQQDSDGSYFLYSKLSVDRNRWQQGTTFTCGVMHEALHNHYTQKNVSKNPGK
B5: equine IgG1 G426D (antibody, part only; not given: variable domains, not shown: another chain or arm of the molecule)
constant: ASTTAPKVFALAPGCGTTSDSTVALGCLVSGYFPEPVKVSWNSGSLTSGVHTFPSVLQSSGFYSLSSMVTVPASTWTSETYICNVVHAASNFKVDKRIEPIPDNHQKVCDMSKCPKCPAPELLGGPSVFIFPPNPKDTLMITRTPEVTCVVVDVSQENPDVKFNWYMDGVEVRTATTRPKEEQFNSTYRVVSVLRIQHQDWLSGKEFKCKVNNQALPQPIERTITKTKGRSQEPQVYVLAPHPDELSKSKVSVTCLVKDFYPPEINIEWQSNGQPELETKYSTTQAQQDSDGSYFLYSKLSVDRNRWQQGTTFTCDVMHEALHNHYTQKNVSKNPGK
B6: equine IgG1 D312Y (antibody, part only; not given: variable domains, not shown: another chain or arm of the molecule)
constant: ASTTAPKVFALAPGCGTTSDSTVALGCLVSGYFPEPVKVSWNSGSLTSGVHTFPSVLQSSGFYSLSSMVTVPASTWTSETYICNVVHAASNFKVDKRIEPIPDNHQKVCDMSKCPKCPAPELLGGPSVFIFPPNPKDTLMITRTPEVTCVVVDVSQENPDVKFNWYMDGVEVRTATTRPKEEQFNSTYRVVSVLRIQHQYWLSGKEFKCKVNNQALPQPIERTITKTKGRSQEPQVYVLAPHPDELSKSKVSVTCLVKDFYPPEINIEWQSNGQPELETKYSTTQAQQDSDGSYFLYSKLSVDRNRWQQGTTFTCGVMHEALHNHYTQKNVSKNPGK
B7: equine IgG1 G426F (antibody, part only; not given: variable domains, not shown: another chain or arm of the molecule)
constant: ASTTAPKVFALAPGCGTTSDSTVALGCLVSGYFPEPVKVSWNSGSLTSGVHTFPSVLQSSGFYSLSSMVTVPASTWTSETYICNVVHAASNFKVDKRIEPIPDNHQKVCDMSKCPKCPAPELLGGPSVFIFPPNPKDTLMITRTPEVTCVVVDVSQENPDVKFNWYMDGVEVRTATTRPKEEQFNSTYRVVSVLRIQHQDWLSGKEFKCKVNNQALPQPIERTITKTKGRSQEPQVYVLAPHPDELSKSKVSVTCLVKDFYPPEINIEWQSNGQPELETKYSTTQAQQDSDGSYFLYSKLSVDRNRWQQGTTFTCFVMHEALHNHYTQKNVSKNPGK
B8: equine IgG1 G426H (antibody, part only; not given: variable domains, not shown: another chain or arm of the molecule)
constant: ASTTAPKVFALAPGCGTTSDSTVALGCLVSGYFPEPVKVSWNSGSLTSGVHTFPSVLQSSGFYSLSSMVTVPASTWTSETYICNVVHAASNFKVDKRIEPIPDNHQKVCDMSKCPKCPAPELLGGPSVFIFPPNPKDTLMITRTPEVTCVVVDVSQENPDVKFNWYMDGVEVRTATTRPKEEQFNSTYRVVSVLRIQHQDWLSGKEFKCKVNNQALPQPIERTITKTKGRSQEPQVYVLAPHPDELSKSKVSVTCLVKDFYPPEINIEWQSNGQPELETKYSTTQAQQDSDGSYFLYSKLSVDRNRWQQGTTFTCHVMHEALHNHYTQKNVSKNPGK
B9: equine IgG1 G426L (antibody, part only; not given: variable domains, not shown: another chain or arm of the molecule)
constant: ASTTAPKVFALAPGCGTTSDSTVALGCLVSGYFPEPVKVSWNSGSLTSGVHTFPSVLQSSGFYSLSSMVTVPASTWTSETYICNVVHAASNFKVDKRIEPIPDNHQKVCDMSKCPKCPAPELLGGPSVFIFPPNPKDTLMITRTPEVTCVVVDVSQENPDVKFNWYMDGVEVRTATTRPKEEQFNSTYRVVSVLRIQHQDWLSGKEFKCKVNNQALPQPIERTITKTKGRSQEPQVYVLAPHPDELSKSKVSVTCLVKDFYPPEINIEWQSNGQPELETKYSTTQAQQDSDGSYFLYSKLSVDRNRWQQGTTFTCLVMHEALHNHYTQKNVSKNPGK
B10: equine IgG1 G426M (antibody, part only; not given: variable domains, not shown: another chain or arm of the molecule)
constant: ASTTAPKVFALAPGCGTTSDSTVALGCLVSGYFPEPVKVSWNSGSLTSGVHTFPSVLQSSGFYSLSSMVTVPASTWTSETYICNVVHAASNFKVDKRIEPIPDNHQKVCDMSKCPKCPAPELLGGPSVFIFPPNPKDTLMITRTPEVTCVVVDVSQENPDVKFNWYMDGVEVRTATTRPKEEQFNSTYRVVSVLRIQHQDWLSGKEFKCKVNNQALPQPIERTITKTKGRSQEPQVYVLAPHPDELSKSKVSVTCLVKDFYPPEINIEWQSNGQPELETKYSTTQAQQDSDGSYFLYSKLSVDRNRWQQGTTFTCMVMHEALHNHYTQKNVSKNPGK
B11: equine IgG1 G426A (antibody, part only; not given: variable domains, not shown: another chain or arm of the molecule)
constant: ASTTAPKVFALAPGCGTTSDSTVALGCLVSGYFPEPVKVSWNSGSLTSGVHTFPSVLQSSGFYSLSSMVTVPASTWTSETYICNVVHAASNFKVDKRIEPIPDNHQKVCDMSKCPKCPAPELLGGPSVFIFPPNPKDTLMITRTPEVTCVVVDVSQENPDVKFNWYMDGVEVRTATTRPKEEQFNSTYRVVSVLRIQHQDWLSGKEFKCKVNNQALPQPIERTITKTKGRSQEPQVYVLAPHPDELSKSKVSVTCLVKDFYPPEINIEWQSNGQPELETKYSTTQAQQDSDGSYFLYSKLSVDRNRWQQGTTFTCAVMHEALHNHYTQKNVSKNPGK
B12: equine IgG1 G426E (antibody, part only; not given: Variable domains, not shown: another chain or arm of the molecule)
constant: ASTTAPKVFALAPGCGTTSDSTVALGCLVSGYFPEPVKVSWNSGSLTSGVHTFPSVLQSSGFYSLSSMVTVPASTWTSETYICNVVHAASNFKVDKRIEPIPDNHQKVCDMSKCPKCPAPELLGGPSVFIFPPNPKDTLMITRTPEVTCVVVDVSQENPDVKFNWYMDGVEVRTATTRPKEEQFNSTYRVVSVLRIQHQDWLSGKEFKCKVNNQALPQPIERTITKTKGRSQEPQVYVLAPHPDELSKSKVSVTCLVKDFYPPEINIEWQSNGQPELETKYSTTQAQQDSDGSYFLYSKLSVDRNRWQQGTTFTCEVMHEALHNHYTQKNVSKNPGK
B13: equine IgG1 G426K (antibody, part only; not given: Variable domains, not shown: another chain or arm of the molecule)
constant: ASTTAPKVFALAPGCGTTSDSTVALGCLVSGYFPEPVKVSWNSGSLTSGVHTFPSVLQSSGFYSLSSMVTVPASTWTSETYICNVVHAASNFKVDKRIEPIPDNHQKVCDMSKCPKCPAPELLGGPSVFIFPPNPKDTLMITRTPEVTCVVVDVSQENPDVKFNWYMDGVEVRTATTRPKEEQFNSTYRVVSVLRIQHQDWLSGKEFKCKVNNQALPQPIERTITKTKGRSQEPQVYVLAPHPDELSKSKVSVTCLVKDFYPPEINIEWQSNGQPELETKYSTTQAQQDSDGSYFLYSKLSVDRNRWQQGTTFTCKVMHEALHNHYTQKNVSKNPGK
B14: equine IgG1 G426P (antibody, part only; not given: variable domains, not shown: another chain or arm of the molecule)
constant: ASTTAPKVFALAPGCGTTSDSTVALGCLVSGYFPEPVKVSWNSGSLTSGVHTFPSVLQSSGFYSLSSMVTVPASTWTSETYICNVVHAASNFKVDKRIEPIPDNHQKVCDMSKCPKCPAPELLGGPSVFIFPPNPKDTLMITRTPEVTCVVVDVSQENPDVKFNWYMDGVEVRTATTRPKEEQFNSTYRVVSVLRIQHQDWLSGKEFKCKVNNQALPQPIERTITKTKGRSQEPQVYVLAPHPDELSKSKVSVTCLVKDFYPPEINIEWQSNGQPELETKYSTTQAQQDSDGSYFLYSKLSVDRNRWQQGTTFTCPVMHEALHNHYTQKNVSKNPGK
B15: equine IgG1 G426I (antibody, part only; not given: variable domains, not shown: another chain or arm of the molecule)
constant: ASTTAPKVFALAPGCGTTSDSTVALGCLVSGYFPEPVKVSWNSGSLTSGVHTFPSVLQSSGFYSLSSMVTVPASTWTSETYICNVVHAASNFKVDKRIEPIPDNHQKVCDMSKCPKCPAPELLGGPSVFIFPPNPKDTLMITRTPEVTCVVVDVSQENPDVKFNWYMDGVEVRTATTRPKEEQFNSTYRVVSVLRIQHQDWLSGKEFKCKVNNQALPQPIERTITKTKGRSQEPQVYVLAPHPDELSKSKVSVTCLVKDFYPPEINIEWQSNGQPELETKYSTTQAQQDSDGSYFLYSKLSVDRNRWQQGTTFTCIVMHEALHNHYTQKNVSKNPGK
B16: equine IgG1 G426N (antibody, part only; not given: variable domains, not shown: another chain or arm of the molecule)
constant: ASTTAPKVFALAPGCGTTSDSTVALGCLVSGYFPEPVKVSWNSGSLTSGVHTFPSVLQSSGFYSLSSMVTVPASTWTSETYICNVVHAASNFKVDKRIEPIPDNHQKVCDMSKCPKCPAPELLGGPSVFIFPPNPKDTLMITRTPEVTCVVVDVSQENPDVKFNWYMDGVEVRTATTRPKEEQFNSTYRVVSVLRIQHQDWLSGKEFKCKVNNQALPQPIERTITKTKGRSQEPQVYVLAPHPDELSKSKVSVTCLVKDFYPPEINIEWQSNGQPELETKYSTTQAQQDSDGSYFLYSKLSVDRNRWQQGTTFTCNVMHEALHNHYTQKNVSKNPGK

Each binder was assayed against equine FcRn (large alpha subunit p51) / equine beta-2-microglobulin complex, biotinylated (equine) (UniProt P30441) (assay: SPR (Biacore), pH 6).
Sequence of UniProt P30441 (P30441 21-118, one chain of several): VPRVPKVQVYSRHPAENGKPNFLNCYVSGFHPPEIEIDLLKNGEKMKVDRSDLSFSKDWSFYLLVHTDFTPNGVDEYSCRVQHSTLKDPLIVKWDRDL
Work on B1 yielded a Kd of 21.6 nM. B2 showed a Kd of 20.4 nM. For B3, the Kd was 26.6 nM. For B4, the Kd was 19.3 nM. Binder B5 has a Kd of 25.3 nM. Work on B6 yielded a Kd of 17.1 nM. B7 showed a Kd of 13.1 nM. B8 gave a Kd of 12.8 nM. With B9 the Kd was 9.61 nM. Binder B10 has a Kd of 9.09 nM. Work on B11 yielded a Kd of 17.6 nM. Binder B12 has a Kd of 24.1 nM. Binder B13 has a Kd of 9.3 nM. In the case of B14, the Kd is reported as 23.9 nM. For B15, the Kd was 9.47 nM. In the case of B16, the Kd is reported as 10.3 nM.
